In patent US20240166765A1 (ICONIC THERAPEUTICS, published 2024):

How the values were obtained:
[1] = biological target: T1, human Tissue Factor on MDA-MB-231 cells (human, UniProt P13726 33-295); assay: flow cytometry, MDA-MB-231 cells; binding of 20 nM FVII-Fc-Alexa488 (competitor) left at 250 nM Ab
T1 construct: also called TF; hTF

[2] = biological target: T1, human Tissue Factor on MDA-MB-231 cells; assay: flow cytometry, MDA-MB-231 cells; binding of 20 nM FVII-Fc-Alexa488 (competitor) left at 28 nM Ab
[3] = biological target: T1, human Tissue Factor on MDA-MB-231 cells; assay: flow cytometry, MDA-MB-231 cells; binding of 20 nM FVII-Fc-Alexa488 (competitor) left at 83 nM Ab
[4] = biological target: T1, human Tissue Factor on MDA-MB-231 cells; assay: cell-based or functional assay
[5] = biological target: T1, human Tissue Factor on MDA-MB-231 cells; assay: flow cytometry, MDA-MB-231 cells; binding of 20 nM FVII-Fc-Alexa488 (competitor) left at 9.25 nM Ab
[6] = biological target: Relipidated TF (UniProt P13726 33-295, limits assumed); assay: cell-based or functional assay
[7] = biological target: T2, human Tissue Factor (hTF), endogenously expressed on human TF-positive cells (human, UniProt P13726 33-295); assay: cell-based or functional assay
[8] = biological target: T2, human Tissue Factor (hTF), endogenously …; assay: flow cytometry competition on A431 cells, 100 nM unlabelled antibody, competitor 20 nM 43Ea-Alexa488
[9] = biological target: T3, Expi293-derived human TF ECD-His6 (TF-His) (human, UniProt P13726 33-251); assay: protein ELISA, plate coated with Expi293-derived TF-His
T3 construct: Glycosylated TF ECD-His6 made in Expi293 cells and coated on ELISA plates; also called Expi293-derived TF protein

[10] = biological target: T4, Macaca mulatta TF on RF/6A cells (Macaca mulatta, UniProt P13726 33-294 (human entry)); assay: flow cytometry on Macaca mulatta RF/6A cells
T4 construct: also called TF-positive Macaca mulatta RF/6A cells; cynomolgus TF (cTF)
T4 chain: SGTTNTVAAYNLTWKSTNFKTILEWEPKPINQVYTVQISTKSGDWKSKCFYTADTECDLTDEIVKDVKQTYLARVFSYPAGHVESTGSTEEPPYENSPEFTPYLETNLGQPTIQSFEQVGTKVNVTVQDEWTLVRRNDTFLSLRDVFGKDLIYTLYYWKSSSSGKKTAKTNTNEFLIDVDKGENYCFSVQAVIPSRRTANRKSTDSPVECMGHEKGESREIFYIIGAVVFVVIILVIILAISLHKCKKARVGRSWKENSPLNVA

[11] = biological target: T2, human Tissue Factor (hTF), endogenously …; assay: flow cytometry competition on A431 cells, 100 nM unlabelled antibody, competitor 20 nM 25A-Alexa488
[12] = biological target: T5, E. coli-derived TF ECD-His6 (Homo sapiens (Human), UniProt P13726 33-251); assay: protein ELISA, plate coated with E. coli-derived TF-His
T5 construct: The OmpA signal is not part of that entry; also called E.coli-derived TF protein; E. coli-derived TF-His

B1: 1F (antibody, V domains shown)
VH: EVQLLESGGGLVQPGGSLRLSCAASGFTFSDYAMGWVRQAPGKGLEWVSTISGSGGLTYYADSVKGRFTISRDNSKNTLYLQMNSLRAEDTAVYYCAKAPYGYYMDVWGKGTTVTVSS
VL: not shown
notes: Human anti-TF IgG1
With B1 the “% FVIIa” value [1] was 6%, the “% FVIIa” value [2] was 7% and the “% FVIIa” value [3] was 7%. The “% IL8, 2.56 nM Ab” value [4] was 18%, the “% IL8, 6.4 nM Ab” value [4] was 3% and the “% IL8, 16 nM Ab” value [4] was 2%. The “% IL8, 40 nM Ab” value [4] was 2%, the “% IL8, 100 nM Ab” value [4] was 2% and the “% FVIIa” value [5] was 7%. The “TGA % ETP, 10 nM Ab, 10 min pre-incubation” value [6] was 31%, the “TGA % Peak IIa, 10 nM Ab, 10 min pre-incubation” value [6] was 10% and the “TGA % Peak IIa, 50 nM Ab, 10 min pre-incubation” value [6] was 7%. For the same binder, the “TGA % Peak IIa, 100 nM Ab, 10 min pre-incubation” value [6] was 7%, the “TGA ETP, 10 nM Ab, 10 min pre-incubation” value [6] was 540 nM·min and the “TGA Lag Time, 10 nM Ab, 10 min pre-incubation” value [6] was 18.8 min. For the same binder, the “TGA Lag Time, 50 nM Ab, 10 min pre-incubation” value [6] was 27.6 min, the “TGA Lag Time, 100 nM Ab, 10 min pre-incubation” value [6] was 30.3 min and the “TGA Peak IIa, 10 nM Ab, 10 min pre-incubation” value [6] was 27 nM. The “TGA Peak IIa, 50 nM Ab, 10 min pre-incubation” value [6] was 20 nM, the “TGA Peak IIa, 100 nM Ab, 10 min pre-incubation” value [6] was 17 nM and the “TGA ttPeak, 10 nM Ab, 10 min pre-incubation” value [6] was 28.6 min. For the same binder, the “TGA ttPeak, 50 nM Ab, 10 min pre-incubation” value [6] was 38.9 min and the “TGA ttPeak, 100 nM Ab, 10 min pre-incubation” value [6] was 42 min.

B2: anti-TF antibody 1F (antibody, human IgG1, V domains shown)
VH: B1 VH
VL: not shown
notes: Human IgG1
For B2, the “% GM-CSF, 2.56 nM antibody, MDA-MB-231 cells + FVIIa” value (shortened to “% GM-CSF, 2.56 nM antibody”) [7] was 27%, the “% GM-CSF, 6.4 nM antibody, MDA-MB-231 cells + FVIIa” value (from here on “% GM-CSF, 6.4 nM antibody”) [7] was 8% and the “% GM-CSF, 16 nM antibody, MDA-MB-231 cells + FVIIa” value (“% GM-CSF, 16 nM antibody” below) [7] was 6%. For the same binder, the “% GM-CSF, 40 nM antibody, MDA-MB-231 cells + FVIIa” value (from here on “% GM-CSF, 40 nM antibody”) [7] was 6%, the “% GM-CSF, 100 nM antibody, MDA-MB-231 cells + FVIIa” value (shortened to “% GM-CSF, 100 nM antibody”) [7] was 6% and the “% 43Ea binding” value [8] was 77%. For the same binder, the EC50 [9] was 0.41 nM, the EC50 [10] was 0.17 nM and the “% 25A binding” value [11] was 95%. The EC50 [12] was 0.32 nM.

B3: anti-TF antibody 54E (antibody, human IgG1, V domains shown)
VH: QVQLVQSGAEVKKPGASVKVSCKASGYTFANYYMHWVRQAPGQGLEWMGIINPSGGITVYAQKFQGRVTMTRDTSTSTVYMELSSLRSEDTAVYYCARGGSKVAALAFDIWGQGTMVTVSS
VL: DIQMTQSPSSLSASVGDRVTITCQASQDISNSLNWYQQKPGKAPKLLIYDASNLETGVPSRFSGSRSGTDFTFTISSLQPEDIATYYCQQYNFHPLTFGGGTKVEIK
notes: Human IgG1
For B3, the “% GM-CSF, 2.56 nM antibody” value [7] was 38%, the “% GM-CSF, 6.4 nM antibody” value [7] was 10% and the “% GM-CSF, 16 nM antibody” value [7] was 5%. For the same binder, the “% GM-CSF, 40 nM antibody” value [7] was 5%, the “% GM-CSF, 100 nM antibody” value [7] was 5% and the “% 43Ea binding” value [8] was 96%. For the same binder, the EC50 [9] was 0.96 nM, the EC50 [10] was 1.28 nM and the “% 25A binding” value [11] was 99%. The EC50 [12] was 0.38 nM.

B4: anti-TF antibody 25A (antibody, human IgG1, V domains shown)
VH: QVQLVQSGAEVKKPGASVKVSCKASGYTFDVYGISWVRQAPGQGLEWMGWIAPYNGNTNYAQKLQGRVTMTTDTSTSTAYMELRSLRSDDTAVYYCARDAGTYSPFGYGMDVWGQGTTVTVSS
VL: DIQMTQSPSTLSASVGDRVTITCRASQSISSWLAWYQQKPGKAPKLLIYKASSLESGVPSRFSGSGSGTEFTLTISSLQPDDFATYYCQQFQSLPPFTFGGGTKVEIK
notes: Human IgG1
B4 was tested, and the “% GM-CSF, 2.56 nM antibody” value [7] was 57%, the “% GM-CSF, 6.4 nM antibody” value [7] was 24% and the “% GM-CSF, 16 nM antibody” value [7] was 22%. For the same binder, the “% GM-CSF, 40 nM antibody” value [7] was 19%, the “% GM-CSF, 100 nM antibody” value [7] was 22% and the “% 43Ea binding” value [8] was 1%. The EC50 [9] was 0.54 nM, the EC50 [10] was 0.43 nM and the “% 25A binding” value [11] was 3%. The EC50 [12] was 0.35 nM.

B5: anti-TF antibody 29E (antibody, human IgG1, V domains shown)
VH: QVQLVESGGGVVQPGRSLRLSCAASGFTFRSYGMHWVRQAPGKGLEWVAVITYDGINKYYADSVEGRFTISRDNSKNTLYLQMNSLRAEDTAVYYCARDGVYYGVYDYWGQGTLVTVSS
VL: not shown
notes: Human IgG1
For B5, the “% GM-CSF, 2.56 nM antibody” value [7] was 33%, the “% GM-CSF, 6.4 nM antibody” value [7] was 9% and the “% GM-CSF, 16 nM antibody” value [7] was 5%. The “% GM-CSF, 40 nM antibody” value [7] was 6%, the “% GM-CSF, 100 nM antibody” value [7] was 6% and the “% 43Ea binding” value [8] was 85%. The EC50 [9] was 0.98 nM, the EC50 [10] was 0.53 nM and the “% 25A binding” value [11] was 96%. For the same binder, the EC50 [12] was 0.68 nM.

B6: 39A (antibody, V domains shown)
VH: QVQLVQSGAEVKKPGSSVKVSCKASGGTFSSNAIGWVRQAPGQGLEWMGSIIPIIGFANYAQKFQGRVTITADESTSTAYMELSSLRSEDTAVYYCARDSGYYYGASSFGMDVWGQGTTVTVSS
VL: EIVMTQSPATLSVSPGERATLSCRASQSVSSNLAWYQQKPGQAPRLLIYGASTRATGIPARFSGSGSGTEFTLTISSLQSEDFAVYYCEQYNNLPLTFGGGTKVEIK
notes: Human anti-TF IgG1
For B6, the “% FVIIa” value [1] was 2%, the “% FVIIa” value [2] was 2% and the “% FVIIa” value [3] was 2%. The “% IL8, 2.56 nM Ab” value [4] was 52%, the “% IL8, 6.4 nM Ab” value [4] was 6% and the “% IL8, 16 nM Ab” value [4] was 2%. The “% IL8, 40 nM Ab” value [4] was 2%, the “% IL8, 100 nM Ab” value [4] was 3% and the “% FVIIa” value [5] was 2%. For the same binder, the “TGA % ETP, 10 nM Ab, 10 min pre-incubation” value [6] was 28%, the “TGA % ETP, 50 nM Ab, 10 min pre-incubation” value [6] was 20% and the “TGA % Peak IIa, 10 nM Ab, 10 min pre-incubation” value [6] was 9%. The “TGA % Peak IIa, 50 nM Ab, 10 min pre-incubation” value [6] was 7%, the “TGA % Peak IIa, 100 nM Ab, 10 min pre-incubation” value [6] was 7% and the “TGA ETP, 10 nM Ab, 10 min pre-incubation” value [6] was 482 nM·min. For the same binder, the “TGA ETP, 50 nM Ab, 10 min pre-incubation” value [6] was 346 nM·min, the “TGA Lag Time, 10 nM Ab, 10 min pre-incubation” value [6] was 20.8 min and the “TGA Lag Time, 50 nM Ab, 10 min pre-incubation” value [6] was 28.4 min. The “TGA Lag Time, 100 nM Ab, 10 min pre-incubation” value [6] was 28 min, the “TGA Peak IIa, 10 nM Ab, 10 min pre-incubation” value [6] was 25 nM and the “TGA Peak IIa, 50 nM Ab, 10 min pre-incubation” value [6] was 17 nM. The “TGA Peak IIa, 100 nM Ab, 10 min pre-incubation” value [6] was 17 nM, the “TGA ttPeak, 10 nM Ab, 10 min pre-incubation” value [6] was 30.7 min and the “TGA ttPeak, 50 nM Ab, 10 min pre-incubation” value [6] was 38.9 min. For the same binder, the “TGA ttPeak, 100 nM Ab, 10 min pre-incubation” value [6] was 40.2 min.

B7: anti-TF antibody 39A (antibody, human IgG1, V domains shown)
VH: B6 VH
VL: B6 VL
notes: Human IgG1
For B7, the “% GM-CSF, 2.56 nM antibody” value [7] was 42%, the “% GM-CSF, 6.4 nM antibody” value [7] was 8% and the “% GM-CSF, 16 nM antibody” value [7] was 5%. For the same binder, the “% GM-CSF, 40 nM antibody” value [7] was 5%, the “% GM-CSF, 100 nM antibody” value [7] was 7% and the EC50 [9] was 0.45 nM. For the same binder, the EC50 [10] was 0.27 nM, the “% 25A binding” value [11] was 99% and the EC50 [12] was 0.34 nM.
